Here are results for 2 molecules from article PMC6913698.

Data set [1] deals with T1, His-TF-TaGATA1 (Triticum aestivum (line CI12633), UniProt A0A5K7NI72 1-181).
T1 sequence: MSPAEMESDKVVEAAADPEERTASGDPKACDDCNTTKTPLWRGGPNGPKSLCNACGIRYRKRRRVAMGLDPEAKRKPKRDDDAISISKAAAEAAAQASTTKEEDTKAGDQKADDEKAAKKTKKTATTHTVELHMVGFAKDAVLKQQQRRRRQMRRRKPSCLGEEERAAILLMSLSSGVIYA
In words: EMSA.

Data set [2] deals with T1, His-TF-TaGATA1. The experiment in a line: competition.

B1: GATA-containing probe (dsDNA)
DNA 1: AGTCGACGTGGATAATGGATCCTCGAGTGGATAATTCGATC
DNA 2: GATCGAATTATCCACTCGAGGATCCATTATCCACGTCGACT
For B1, the binding result in data set [1] is listed as “binds”.

B2: unlabelled GATA-containing competitor (dsDNA)
DNA 1: B1 DNA 1
DNA 2: B1 DNA 2
On to B2, for which the binding result in data set [2] is “binds”.
